# Values of other authors, collected in patent US20030134789A1, “Compositions and methods for protecting tissues and cells from damage, and for repairing damaged tissues” (priority 2001, published 2003).
# B1: peanut agglutinin (PNA): dietary lectin found in the blood of humans after ingesting raw peanuts (protein, UniProt P02872 24-273, looked up)
# Galactose-binding lectin: AETVSFNFNSFSEGNPAINFQGDVTVLSNGNIQLTNLNKVNSVGRVLYAMPVRIWSSATGNVASFLTSFSFEMKDIKDYDPADGIIFFIAPEDTQIPAGSIGGGTLGVSDTKGAGHFVGVEFDTYSNSEYNDPPTDHVGIDVNSVDSVKTVPWNSVSGAVVKVTVIYDSSTKTLSVAVTNDNGDITTIAQVVDLKAKLPERVKFGFSASGSLGGRQIHLIRSWSFTSTLITTTRRSIDNNEKKIMNMASA
# Settings: humans, an hour after ingesting 200 g of raw peanuts
molecule,measurement,value
B1,level in the blood,1000 to 5000 ng/mL
